Measurements from patent US20120134993A1 (ZymoGenetics, published 2012).
Changes are numbered by the printed parent chain. In names and notes the source's numbering stands.

B1: FGFR3IIIc(23-375)(S249W) Fc5, full-length FGFR3-Fc S249W (A2256F) (Fc fusion)
chain: ESLGTEQRVVGRAAEVPGPEPGQQEQLVFGSGDAVELSCPPPGGGPMGPTVWVKDGTGLVPSERVLVGPQRLQVLNASHEDSGAYSCRQRLTQRVLCHFSVRVTDAPSSGDDEDGEDEAEDTGVDTGAPYWTRPERMDKKLLAVPAANTVRFRCPAAGNPTPSISWLKNGREFRGEHRIGGIKLRHQQWSLVMESVVPSDRGNYTCVVENKFGSIRQTYTLDVLERWPHRPILQAGLPANQTAVLGSDVEFHCKVYSDAQPHIQWLKHVEVNGSKVGPDGTPYVTVLKTAGANTTDKELEVLSLHNVTFEDAGEYTCLAGNSIGFSHHSAWLVVLPAEEELVEADEAGSVYAGEPKSSDKTHTCPPCPAPEAEGAPSVFLFPPKPKDTLMISRTPEVTCVVVDVSHEDPEVKFNWYVDGVEVHNAKTKPREEQYNSTYRVVSVLTVLHQDWLNGKEYKCKVSNKALPSSIEKTISKAKGQPREPQVYTLPPSRDELTKNQVSLTCLVKGFYPSDIAVEWESNGQPENNYKTTPPVLDSDGSFFLYSKLTVDKSRWQQGNVFSCSVMHEALHNHYTQKSLSLSPGK
notes: also called FGFR3 A2256F; FGFR3A2256F
B2: recombinant human FGF-8b (ligand, UniProt P55075-3 23-215, looked up)
chain: QVTVQSSPNFTQHVREQSLVTDQLSRRLIRTYQLYSRTSGKHVQVLANKRINAMAEDGDPFAKLIVETDTFGSRVRVRGAETGLYICMNKKGKLIAKSNGKGKDCVFTEIVLENNYTALQNAKYEGWYMAFTRKGRPRKGSKTRQHQREVHFMKRLPRGHHTTEQSLRFEFLNYPPFTRSLRGSQRTWAPEPR
B3: FGFR2alphaIIIc(145-377) Fc5, truncated FGFR2-Fc (A2559F) (Fc fusion)
chain: SENSNNKRAPYWTNTEKMEKRLHAVPAANTVKFRCPAGGNPMPTMRWLKNGKEFKQEHRIGGYKVRNQHWSLIMESVVPSDKGNYTCVVENEYGSINHTYHLDVVERSPHRPILQAGLPANASTVVGGDVEFVCKVYSDAQPHIQWIKHVEKNGSKYGPDGLPYLKVLKAAGVNTTDKEIEVLYIRNVTFEDAGEYTCLAGNSIGISFHSAWLTVLPAPGREKEITASPDYLEEPKSSDKTHTCPPCPAPEAEGAPSVFLFPPKPKDTLMISRTPEVTCVVVDVSHEDPEVKFNWYVDGVEVHNAKTKPREEQYNSTYRVVSVLTVLHQDWLNGKEYKCKVSNKALPSSIEKTISKAKGQPREPQVYTLPPSRDELTKNQVSLTCLVKGFYPSDIAVEWESNGQPENNYKTTPPVLDSDGSFFLYSKLTVDKSRWQQGNVFSCSVMHEALHNHYTQKSLSLSPGK
notes: also called FGFR2A2559F; FGFR2 A2559F
B4: FGFR2alphaIIIc(145-377)(P253R) Fc5, truncated FGFR2-Fc P253R (A2561F) (Fc fusion)
chain: B3 chain with P109R
notes: also called FGFR2 A2561F; construct #1950
B5: recombinant human FGF-17 (ligand, UniProt O60258 23-216, looked up)
chain: TQGENHPSPNFNQYVRDQGAMTDQLSRRQIREYQLYSRTSGKHVQVTGRRISATAEDGNKFAKLIVETDTFGSRVRIKGAESEKYICMNKRGKLIGKPSGKSKDCVFTEIVLENNYTAFQNARHEGWFMAFTRQGRPRQASRSRQNQREAHFIKRLYQGQLPFPNHAEKQKQFEFVGSAPTRRTKRTRRPQPLT

Columns and labels:
[1] = biological target: recombinant human FGF2 (human, UniProt P09038 143-288, limits assumed); test: cell-based or functional assay
[2] = biological target: recombinant human FGF1 (human, UniProt P05230 16-155); test: cell-based or functional assay
[3] = biological target: T1, recombinant human FGF6 (human, UniProt P10767 83-208, limits assumed); test: cell-based or functional assay
T1 sequence (looked up): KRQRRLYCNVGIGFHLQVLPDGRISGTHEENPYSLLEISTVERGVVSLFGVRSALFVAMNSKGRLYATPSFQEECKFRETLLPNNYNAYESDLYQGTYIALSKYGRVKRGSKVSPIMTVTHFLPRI

[4] = biological target: T2, recombinant human FGF4 (human, UniProt P08620 31-206, limits assumed); test: cell-based or functional assay
T2 sequence (looked up): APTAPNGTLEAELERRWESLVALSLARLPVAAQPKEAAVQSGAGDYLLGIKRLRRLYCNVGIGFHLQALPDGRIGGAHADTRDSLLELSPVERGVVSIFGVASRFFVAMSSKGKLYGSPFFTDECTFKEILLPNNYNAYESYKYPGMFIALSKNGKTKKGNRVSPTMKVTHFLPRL

[5] = biological target: B5; test: direct binding ELISA, FGF-17 coated, FGFR-Fc titrated with heparin, anti-human Fc-HRP
Description: (§1) To determine the binding capability of FGFR-Fc to their respective ligands, an ELISA was run. Recombinant human FGF-8b or FGF-17 (R&D Systems) was plated at 100 nM on a Nunc Maxisorp 96-well plate for 1 h at room temperature with shaking. The plates were blocked with BLOTTO (Thermo Fisher Scientific, Rockford, Ill.) for 1 h at room temperature, then washed 5 times with ELISA C buffer (137 mM NaCl, 2.7 mM KCl, 7.2 mM Na₂HPO₄, 1.5 mM KH₂PO₄, 0.05% (v/w) polysorbate 20, pH 7.2). FGFR-Fcs were diluted to 100 nM with PBS/0.1×BLOTTO/10 ug/ml porcine heparin (Sigma, St. Louis, Mo.) and then 1:2 serial dilutions were made, ending at 0.10 nM. 100 μL of FGFR-Fcs were plated and incubated at 4° C. overnight. The following day, the plates were washed 5 times with ELISA C and then incubated with 2.5 μg/mL horseradish peroxidase-conjugated anti-human Fc antibody (Jackson ImmunoResearch Laboratories, West Grove, Pa.) for 1 h at room temperature with shaking. After 5 washes with ELISA C, 100 μL of OPD in citrate buffer (5 mg of o-phenylenediamine in 63 mM sodium citrate, 37 mM citric acid, pH 5.0, 0.03% H₂O₂) was added for detection. After 2-5 minutes, the reaction was stopped with 1 N H₂SO₄. The plates were read at 490 nm using SoftMaxPro software.

[6] = biological target: T1, recombinant human FGF6; test: SPR (Biacore T100), FGFR-Fc captured on protein A, FGF6 analyte with heparin, bivalent analyte model (kd1)
Description: (§2) Materials and Methods: Binding kinetics and affinity studies were performed on a Biacore T100™ system (GE Healthcare, Piscataway, N.J.). Methods for the Biacore T100™ were programmed using Biacore T100™ Control Software, v 2.0. Since each of the FGF receptor molecules contained a human Fc domain, biotinylated protein-A (Thermo Fisher Scientific Inc, Rockford, Ill.) was used as a capture reagent for these studies. Biotinylated protein-A was diluted to concentration of 50 μg/mL in HBS-EP buffer (10 mM HEPES, 150 mM NaCl, 3 mM EDTA, 0.05% Surfactant P20; GE Healthcare, Piscataway, N.J.), and then captured to all four flow cells of a SA (streptavidin) sensor chip. A density of approximately 1100 RU was obtained for each flow cell. Each FGF receptor molecule was subsequently captured via protein-A onto a separate flow cell of the SA chip at an approximate density of 150-250 RU. The Biacore instrument measures the mass of protein bound to the sensor chip surface, and thus, capture of the receptor was verified for each cycle.
(§3) For kinetic binding studies, serial 1:5 dilutions of FGF ligands were prepared from 200 nM-0.06 nM. These samples were injected over the surface and allowed to specifically bind to the FGF receptor captured on the sensor chip. Injections of each ligand concentration were performed with an association time of 7 minutes and dissociation time of 15 minutes. Kinetic binding studies were performed with a flow rate of 50 μL/min. All binding experiments were performed at 25° C. in HBS-P buffer (10 mM HEPES, 150 mM NaCl, 0.05% Surfactant P20, pH 7.4; GE Healthcare, Piscataway, N.J.), containing 50 μg/mL heparin (Calbiochem, La Jolla, Calif.).
(§4) Between cycles, the flow cell was washed with 20 mM hydrochloric acid to regenerate the surface. This wash step removed both the captured FGF receptor and any bound FGF ligand from the protein-A surface, and allowed for the subsequent binding of the next test sample. Data was compiled using the Biacore T100™ Evaluation software (version 2.0). Data was processed by subtracting reference flow cell and blank injections. Baseline stability was assessed to ensure that the regeneration step provided a consistent binding surface throughout the sequence of injections. Duplicate injection curves were checked for reproducibility. Binding curves were globally fit to the bivalent analyte model.

[7] = biological target: T1, recombinant human FGF6; test: SPR (Biacore T100), FGFR-Fc captured on protein A, FGF6 analyte with heparin, bivalent analyte model (KA1)
Description: as §2, §3, §4

[8] = biological target: human FGF-9 (human, UniProt P31371 4-208); test: cell-based or functional assay
[9] = biological target: T1, recombinant human FGF6; test: SPR (Biacore T100), FGFR-Fc captured on protein A, FGF6 analyte with heparin, bivalent analyte model (KD1)
Description: as §2, §3, §4

[10] = biological target: T1, recombinant human FGF6; test: SPR (Biacore T100), FGFR-Fc captured on protein A, FGF6 analyte with heparin, bivalent analyte model (ka1)
Description: as §2, §3, §4

[11] = biological target: B2; test: cell-based or functional assay
[12] = biological target: B2; test: direct binding ELISA, FGF-8b coated, FGFR-Fc titrated with heparin, anti-human Fc-HRP
Description: as §1

[13] = biological target: T3, human FGFR4-Fc (R&D Systems) (human, UniProt P22455 22-369); test: ELISA: FGF-8b coated at 100 nM, FGFR-Fc 100 to 0.10 nM in 1:2 steps with 10 ug/ml heparin, anti-human Fc-HRP, OD 490 nm
T3 construct: Bought; also called FGFR4 (R&D systems); R&D FGFR4; not shown: Fc of the commercial fusion; not described
Description: as §1

[14] = biological target: B5; test: ELISA: FGF-17 coated at 100 nM, FGFR-Fc 100 to 0.10 nM in 1:2 steps with 10 ug/ml heparin, anti-human Fc-HRP, OD 490 nm
Description: as §1

[15] = biological target: T3, human FGFR4-Fc (R&D Systems); test: as above
Description: as §1

recombinant human FGF2, sequence (P09038 143-288 limits assumed): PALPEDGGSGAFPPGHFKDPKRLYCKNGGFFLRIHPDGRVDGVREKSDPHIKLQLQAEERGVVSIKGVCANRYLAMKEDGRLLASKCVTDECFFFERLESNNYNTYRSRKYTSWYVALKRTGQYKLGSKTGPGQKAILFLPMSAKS
recombinant human FGF1, sequence (P05230 16-155 limits assumed): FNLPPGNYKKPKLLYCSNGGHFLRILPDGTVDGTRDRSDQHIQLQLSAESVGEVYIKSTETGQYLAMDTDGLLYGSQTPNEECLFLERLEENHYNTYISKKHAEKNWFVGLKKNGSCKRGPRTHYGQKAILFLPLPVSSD

B1
IC50, FGF-stimulated HUVEC proliferation (3H-thymidine) [1]: 1 nM | IC50, FGF-stimulated HUVEC proliferation (3H-thymidine) [2]: 0.82 nM | IC50, FGF-stimulated HUVEC proliferation (3H-thymidine) [3]: 0.95 nM | IC50, FGF-stimulated HUVEC proliferation (3H-thymidine) [4]: 0.74 nM | IC50 [5]: 8.66 nM | koff [6]: 0.0005 s⁻¹ | Ka [7]: 1e+09 M⁻¹ | Proliferation IC50, FGF-9-stimulated HCO osteoblasts (3H-thymidine) [8]: 0.84 nM | Kd [9]: 0.8 nM | kon [10]: 600000 M⁻¹ s⁻¹ | Proliferation IC50, FGF8b-stimulated LNCap cells (3H-thymidine) [11]: 0.01 nM | IC50 [12]: 37.7 nM

B2
binding result [13]: binds

B3
binding result [14]: no binding (tested: 100 nM)

B4
binding result [14]: no binding (tested: 100 nM)

B5
binding result [15]: binds
